Assay results as given in PMC7789814, “The influence of various regions of the FOXP2 sequence on its structure and DNA-binding function”.
One block for each molecule: values may come before it.

Columns and labels:
FOXP2 LZ-END [1] = test: SEC; 20 µM protein incubated at 20°C for at least 30 min; Superdex 200 10/300 GL; running buffer 500 mM NaCl, 10 mM HEPES pH 7.5, 2 mM DTT; calibrated with 12-200 kDa markers; oligomer size predicted from the monomeric size
FOXP1 LZ-END [2] = test: as above
FOXP2 FHD-END [3] = test: SEC; 20 µM protein incubated at 20°C for at least 30 min; HiLoad 16/60 Superdex 75 prep grade; running buffer 500 mM NaCl, 10 mM HEPES pH 7.5, 2 mM DTT; calibrated with 12-200 kDa markers; oligomer size predicted from the monomeric size
FOXP2 FHD = target: T1, FOXP2 FHD (UniProt O15409 504-594); test: fluorescence anisotropy; FA: 10 mM HEPES pH 7.5, 100 mM NaCl, 0.02% NaN3, 500 nM DNA, temperature not stated; EMSA: 10 mM HEPES pH 7.5, 1 mM MgCl2, 100 mM KCl, 10% glycerol, 0.1 mg/ml BSA, 500 nM DNA, on ice, gel at 4 C; conditions: protein: recombinant; (purified by nickel IMAC); blunt
T1 sequence: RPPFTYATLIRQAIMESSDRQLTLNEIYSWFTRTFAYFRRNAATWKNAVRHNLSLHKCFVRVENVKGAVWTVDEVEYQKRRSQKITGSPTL

FOXP2 LZ-FHD = target: T2, FOXP2 LZ-FHD (UniProt O15409 372-594); test: as above; conditions: protein: recombinant; (purified by nickel IMAC); chain copies: 2; blunt
T2 sequence: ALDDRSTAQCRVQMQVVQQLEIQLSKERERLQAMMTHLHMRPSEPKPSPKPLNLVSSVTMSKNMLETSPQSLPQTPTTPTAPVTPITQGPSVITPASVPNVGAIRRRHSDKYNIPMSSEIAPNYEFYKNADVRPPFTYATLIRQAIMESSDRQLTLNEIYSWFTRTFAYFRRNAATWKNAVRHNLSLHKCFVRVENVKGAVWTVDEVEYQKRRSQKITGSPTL

FOXP1 LZ-FHD = target: T3, FOXP1 LZ-FHD (UniProt Q9H334 332-555); test: as above; conditions: protein: recombinant; chain copies: 2; blunt
T3 sequence: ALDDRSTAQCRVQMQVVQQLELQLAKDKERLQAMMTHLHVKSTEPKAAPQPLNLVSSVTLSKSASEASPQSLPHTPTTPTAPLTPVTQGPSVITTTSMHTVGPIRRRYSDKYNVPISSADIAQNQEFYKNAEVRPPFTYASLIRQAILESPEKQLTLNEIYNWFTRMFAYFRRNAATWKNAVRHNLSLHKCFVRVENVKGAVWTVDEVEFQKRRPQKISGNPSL

FOXP2 FHD-END [4] = target: T4, FOXP2 FHD-END (UniProt O15409 504-715); test: as above; conditions: protein: recombinant; (purified by nickel IMAC); chain copies: 2; blunt
T4 sequence: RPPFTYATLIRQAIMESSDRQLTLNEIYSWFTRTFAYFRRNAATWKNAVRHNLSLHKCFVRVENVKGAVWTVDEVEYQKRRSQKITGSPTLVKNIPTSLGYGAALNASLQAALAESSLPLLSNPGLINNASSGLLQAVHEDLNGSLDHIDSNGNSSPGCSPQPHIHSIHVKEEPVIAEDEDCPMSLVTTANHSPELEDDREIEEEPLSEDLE

FOXP2 LZ-END [5] = target: T5, FOXP2 LZ-END (UniProt O15409 372-715); test: as above; conditions: protein: recombinant; (purified by nickel IMAC); chain copies: 8; blunt
T5 sequence: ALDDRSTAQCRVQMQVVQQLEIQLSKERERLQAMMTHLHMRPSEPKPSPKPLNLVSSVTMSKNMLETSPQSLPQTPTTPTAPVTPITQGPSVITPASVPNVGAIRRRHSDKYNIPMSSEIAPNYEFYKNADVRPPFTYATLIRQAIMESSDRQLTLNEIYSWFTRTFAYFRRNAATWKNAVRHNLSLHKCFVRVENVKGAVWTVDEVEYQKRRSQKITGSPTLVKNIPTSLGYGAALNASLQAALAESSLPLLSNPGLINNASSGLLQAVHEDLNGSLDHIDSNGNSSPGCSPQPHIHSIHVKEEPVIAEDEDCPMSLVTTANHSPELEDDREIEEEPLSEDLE

FOXP1 LZ-END [6] = target: T6, FOXP1 LZ-END (UniProt Q9H334 332-677); test: as above; conditions: protein: recombinant; (purified by nickel IMAC); chain copies: 4; blunt
T6 sequence: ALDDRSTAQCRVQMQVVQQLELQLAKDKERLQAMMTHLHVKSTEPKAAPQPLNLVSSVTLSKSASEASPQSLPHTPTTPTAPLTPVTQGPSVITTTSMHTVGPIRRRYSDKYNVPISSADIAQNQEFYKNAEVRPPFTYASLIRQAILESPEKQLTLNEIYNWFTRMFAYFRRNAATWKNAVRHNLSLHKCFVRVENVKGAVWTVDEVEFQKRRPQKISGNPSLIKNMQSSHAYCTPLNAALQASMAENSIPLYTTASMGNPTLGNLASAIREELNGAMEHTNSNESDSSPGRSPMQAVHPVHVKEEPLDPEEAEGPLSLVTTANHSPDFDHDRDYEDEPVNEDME

percent of the species in the larger oligomer (FOXP2 LZ-END [1]): 70%
stoichiometry N (FOXP2 LZ-END [1]): < 8
Molecule: FOXP2 LZ-END (domain or fragment)

percent of the species in the larger oligomer (FOXP1 LZ-END [2]): 60%
stoichiometry N (FOXP1 LZ-END [2]): 4
Molecule: FOXP1 LZ-END (domain or fragment)

stoichiometry N (FOXP2 FHD-END [3]): 2
Molecule: FOXP2 FHD-END (domain or fragment)

B1: FOXP2 cognate DNA, ROX-labelled (dsDNA)
DNA 1: TTAGGTGTTTACTTTCATAG
DNA 2: CTATGAAAGTAAACACCTAA
Kd (FOXP2 FHD): 1.746 ± 0.0159 µM
Kd (FOXP2 LZ-FHD): 0.347 ± 0.0554 µM
Kd (FOXP1 LZ-FHD): 0.766 ± 0.0121 µM
Kd (FOXP2 FHD-END [4]): 1.9 ± 0.0251 µM
Kd (FOXP2 LZ-END [5]): 0.326 ± 0.0732 µM
Kd (FOXP1 LZ-END [6]): 1.28 ± 0.0704 µM
